From article doi:10.1101/2025.02.20.639385 come the findings set out here.

The assay addresses MBP-RAB23T22N (Chlamydomonas reinhardtii). Put plainly: SEC. For orientation: SEC sorts molecules by how far they enter the pores of the column.

“RAB18S22N (bacterially expressed, 6×His-tag removed) (natural protein)”: the stoichiometry N (in general, a count of units in the complex or per binding partner) amounted to 1.
